The source of these data is the RNAGym collection of RNA variant scans (doi:10.1073/pnas.2313332121).

B1: TPR t1 (parent)
chain: GACCAAUCUGCCCUCAGAGCUCGAGAACAUCUUCGGAUGCAGAGGAGGCAGGCUUCGGUGGCGCGAUAGCGCCAACGUCCUCAACCUCCAAUGCAUCCCACCACAUGAUGAUGCCUGAAGAGCCUUGGUUUUUUG

This data set covers variants of B1. The experiment in a line: polymerase ribozyme fitness, log enrichment relative to wild type (log ratio); higher = more active; in vitro selection for triplet polymerase activity. In short, it runs like this:
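Mutant libraries of both subunits of a heterodimeric triplet polymerase ribozyme were PCR-built, transcribed, and selected once in triplicate, with frozen incubation at −7 °C and capture of gel-excised extended constructs on streptavidin beads before RT-PCR. Illumina sequencing of input and output libraries was filtered to genotypes with ≥10 input reads and ≥1 read per output. Fitness is the logarithm of genotype enrichment over wild-type enrichment, using inverse-variance-weighted replicate averages. The logarithm is base 2.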
GACCAAUCUGCCAUCAGAGCUCGAGAACAUCUUCGGAUGCAGAGGAGGCAGGCUUCGGUGGCGCGAUAGCGGCAACGUCCUCGACCUCCAAUGCAUCCCACCACAUGAUGAUGCCUGAAGUGUCUUGGUUUUUUG [C13A C72G A83G A121U C123U]: the “polymerase ribozyme fitness (log ratio)” value was -0.305.

In the case of GACCAAUCUGCCGUCAGAGCUCGAGAACAUCUUCGGAUGCAGAGGAGGCAGGCUUCGGUGGCGCGAUAGCGCCAACGUCCUCAACCUCCAAUGCAUCCCAUCACAUGAUGAUGCCUGAAGAGCCUUGGUUUUUUG [C13G C101U], the “polymerase ribozyme fitness (log ratio)” value is -2.08.

Take GACCAAUCUGCCCUCAGAGCUCGAGAACAUCUUCGGAUGCAGAGGAGGCAGGCUUCGGUGGCGCGAUAGCGACAACGUCCUCAACCUCCAAUGCAUCACACCACAUGAUGAUGCCUGAAGAGCCUUGGUUUUUUG [C72A C98A]: the “polymerase ribozyme fitness (log ratio)” value was -4.32.

As for GACCAAUCUGCCCUCAGAGCUCGAAAACAUCUUCGGAUGCAGAGGAGGCAGGCUUCGGUGGCGCGAUAGCGCCAACGUCCUCAACCUCCAAUGCAUCCCACCACAUGAUGAUGCCUGAAGCGCCUUGGUUUUUUG [G25A A121C], the “polymerase ribozyme fitness (log ratio)” value was -4.05.

With GACCAAUCUGCCCUCAGAGCUCGAGAACAUCUUCGGAUGCAGAGGAGGCAGGCUUCGGUGUCGCGAUAGCGCCAACGUCCUCAACAUCCAAUGCAUCCCACCACAUGAUGAUGCCUGACAAGCCUUGGUUUUUUG [G61U C86A A119C G120A], the “polymerase ribozyme fitness (log ratio)” value was -2.79.

As to GACCAAUCUGCCCUCAGAGCUCGAGAACAUCUUCGGAUGCAGAGGAGGCAGGCUUCGGUGGCGCGAUAGCGCCAACGUGCUCAACCUCCAAUGCAUCCCACCACAUGAUGAUGCCUGAAGAGCCUGGGUUUUUUG [C79G U126G], the “polymerase ribozyme fitness (log ratio)” value is -2.94.

GACCAAUCUGCCCUCAGAGCUCGAGAACAUCUUCGGAUGCAGAGGAGGCAGGCUUCGGUGUCGCGAUAGCGCCAACGUCCUCAACCUCCAAUGCAUCCCACCACAUGAUGAUGCGUAAAGAUCCUCGGUUUUUUG [G61U C115G G117A G122U U126C]: the “polymerase ribozyme fitness (log ratio)” value is -4.57.

As for GAUCAAUCUGCCCUCAGUGCUCGAGAACAUCUUCGGAUGCAGAGGAGGCAGGCUUCGGUGGCGCGAUAGCGCCAACGUCCUCAACCUCUAAUGCAUCCCACCACAUGAUGAUGCCUGAACAUCCUUGGUUUUUUG [C3U A18U C89U G120C G122U], the “polymerase ribozyme fitness (log ratio)” value is -3.19.

Take GACCAAUCUGCCCUCAGAGCUCGAGAACAUCUUCGGAUGCAGAGGAGGCAGGCUUCGAUGGCGCGAUAGCGCCAACGUCCUCAACCUUCAAUGUAUCCCACCACAUGAUGAUGCCUGAAGAGCCUUCGUUUUUUU [G58A C88U C94U G127C G135U]: the “polymerase ribozyme fitness (log ratio)” value was -3.94.

As for GACCAAUCUGCCCUCAGAGCUCGAGAACAUCUUCGAAUGCAGAGGAGGCAGCCUUCGGUGGCGCGAUAGCGCCAACGUCCUCAACCUCCAAUGCGUCCCACCACAUGAUGAUACCUGAAGAGCCUUGGUUUUUUG [G36A G52C A95G G113A], the “polymerase ribozyme fitness (log ratio)” value is -3.73.

Regarding GACCAAUCUUCCCUCAGAGCUGGAGAACAUCUUCGGAUGCAGAGGAGGCCGGCUUCGGUGGCGCGAUAGCGCCAACGUCCUCAACCUCCAAUGCAUCCCACCACAUGAUGAUGCCUGGAGAGCCUUGGUUUUUUG [G10U C22G A50C A118G], the “polymerase ribozyme fitness (log ratio)” value was -5.56.

As for GACCAAUCUGCCCUCAGAGCUCGAGAACAUCUUCGGAUGCAGAGGAGGCAGGCUUGGGUUGCGCGAUAGCGCCAACGUCCUCAACCUCCAAUGCAUCCCACCACAUGAUGAUGCCUGAAGAGCCUUGGUUUUUUG [C56G G60U], the “polymerase ribozyme fitness (log ratio)” value is -1.44.

With GACCAAUCUGCCCUCAGAGCUCGAGAACAUCUUCGGAUGCAGAGGAGGCAGGCUGCGGUGGCGCGAUAGGGCCAACGUCCUCAACCUCCAAUGCAUCCCCCCACAUGAUGAUGCCUGAAGAGCCUUGGUUUUUUG [U55G C70G A100C], the “polymerase ribozyme fitness (log ratio)” value was -3.29.

Consider GACCAAUCUGCCCUCAGAGCUCGAGAACAUCUUCGGAUGCAGAGGAGGCAGGCUUCGGUGGCGCGAUAGCGCCAACGUCCUCAACCUCCAAUGCAACCCACCACAUGAUGAUGCCUGAAGAGCCUUGCUUUUUUG [U96A G128C], for which the “polymerase ribozyme fitness (log ratio)” value was -3.28.

For the variant GACCAAUCGGCCCGCAGAGCUCGAGAACAUCUUCGGAUGCAGAGGAGGCAGGCUUCGGUGGCGCGAUAGCGCCAACGUCCUCAACCUCCAAUACAUCCCACCACAUGAUGAUGCCUGAAGAGCCUUGGUUUUUUG [U9G U14G G93A], the “polymerase ribozyme fitness (log ratio)” value is -0.26.

On to GACCAAUCUGCGCUGAGAGCUCGAGAACAUCUUCGGAUGCAGAGAAGGCAGGCUUCGGUGCCGCGAUAGCGCCAACGUCCUCAACCUCCAAUGCAUCCCACCACAUGAUGAUGCCUGAAGAGCCUUGGUUUUUUG [C12G C15G G45A G61C], for which the “polymerase ribozyme fitness (log ratio)” value is -4.58.

For the variant GACCAAUCUGCCCUCAGAGCUCGAGAACAUCUUCGGAUGCAGAGGAGGCAGGCUGCGGUGGCGCGUUAGCGCCAACGUCCUCAACCUCCAAUGCAUCCCACCACAUGAUGAUGCCUGAAGAGCCUUGGUUUUUUG [U55G A66U], the “polymerase ribozyme fitness (log ratio)” value is -0.936.

As to GACCAAUCUGACCUCAGAGCUCGAGAACAUUUUCGGAUGUAGAGGACGCAGGCUUCGGUGGUGCGAUAGCGCCAACGUCCUCAACCUCCAAUGCAUCCCACCACAUAAUGAUGCCUGAAGAGCCUUGGUUUUUUG [C11A C31U C40U G47C C62U G107A], the “polymerase ribozyme fitness (log ratio)” value is -4.34.

As for GACCAAUCUGCCCUCAGAGCUCGAGAACAUCUUCGGAUGCAAAGGAGGCAGGCUACGGUGGCGCGAUAGCGCCAACGUCCUGAACCUCCAAUGCAUCCCACCACAUGAUGAUGCCUGAAGAGCCUUGGUUUUUUG [G42A U55A C82G], the “polymerase ribozyme fitness (log ratio)” value is -2.94.

Regarding GACCAAUCUGCCCUCAGAGCUCGAGAACAUCUUCGGAUGCAGAGGAGGCAGGCUUCGGUGCCGCGAUAGCGCCAACGUCCUCAACCUCUAAUGCAUCCCACCACAUGAUGAUCCCUGAACAGCCUUGGUUUUUUG [G61C C89U G113C G120C], the “polymerase ribozyme fitness (log ratio)” value is -4.9.

Turning to GACCAAUCUGCCCUCAGAGCUCGAGAACAUCUUCGGAUGCAGAGGAGGCAGGUUUCGGUGGCGCGAUAGCGCCGACGUCCUCAACCUCCAAUGCAUCUCACCACAUGAUGAUGCCUGAAGAGCCUUGGUUUUUUG [C53U A74G C98U], the “polymerase ribozyme fitness (log ratio)” value was -1.16.
